Where a SMILES comes first, the peptide text is derived from it. Bridges are numbered along the chain shown (N, C = ends). [ ]: non-standard residue; d: D form. The star is where a group is joined. Phe(2,4,6-Me3) = Cc1cc(C)c(C[C@H](N)C(=O)O)c(C)c1; Phe(3,5-F2) = N[C@@H](Cc1cc(F)cc(F)c1)C(=O)O; Myristoyl = CCCCCCCCCCCCCC(=O)*; Octanoyl = CCCCCCCC(=O)*
Columns and labels:
[1] = Serum stability in 90% human serum at 37° C., RP-HPLC; assay type: in vitro ADME
Protocol: The new compounds were incubated with 90% human serum at 37° C. Aliquots were extracted at different incubation times. Methanol was added to precipitate the proteins from the serum, it was centrifuged and the supernatant was subject to a chromatographic analysis using RP-HPLC (Gradient: 20-80% B in 30 min, B=0.07% TFA in acetonitrile). The disappearance of the initial product was analyzed using the area corresponding to the initial product and half-life time was calculated.

[2] = tested on: acute colitis induced by Dextran sulfate sodium (DSS); assay: Experimental model of ulcerative colitis (DSS-induced acute colitis); assay type: in vivo, C57Bl/6 male mice
Protocol: 7-8 week old C57Bl/6 male mice were used. They were given voluntary drinking water with 5% of Dextran sulfate sodium (DSS) from day 0 to day 7 of the study in order to induce acute colitis. Animals in the control group were supplied with normal water. […] CST was used as a reference product. The severity of the colitis was assessed daily using a scale of values from 0 to 4 indicating the clinical disease activity index considering stool consistency, the presence of bloody stools and weight loss. Mice were sacrificed on day 8 of the study and after the necropsy the extent of macroscopic damage was established in the colon using a scale from 0 to 8. […] The average weight of the sick mice's colons was 763 mg, the average weight of the colons of the sick mice treated with CST was 621 mg and that of the colons of the sick mice treated with the new cortistatin analogues was between 614-621 mg, indicating a reduction of the inflammation of the colon.

[3] = molecular target: T1, somatostatin receptor sstr1 (UniProt P30872 1-391, limits assumed); assay: radioligand competition vs 125I-Tyr11-somatostatin 14, CHO-K1 cells expressing sstr1, 0.1 nM to 10 uM
T1 construct: whole, on cells
T1 sequence (P30872 whole entry): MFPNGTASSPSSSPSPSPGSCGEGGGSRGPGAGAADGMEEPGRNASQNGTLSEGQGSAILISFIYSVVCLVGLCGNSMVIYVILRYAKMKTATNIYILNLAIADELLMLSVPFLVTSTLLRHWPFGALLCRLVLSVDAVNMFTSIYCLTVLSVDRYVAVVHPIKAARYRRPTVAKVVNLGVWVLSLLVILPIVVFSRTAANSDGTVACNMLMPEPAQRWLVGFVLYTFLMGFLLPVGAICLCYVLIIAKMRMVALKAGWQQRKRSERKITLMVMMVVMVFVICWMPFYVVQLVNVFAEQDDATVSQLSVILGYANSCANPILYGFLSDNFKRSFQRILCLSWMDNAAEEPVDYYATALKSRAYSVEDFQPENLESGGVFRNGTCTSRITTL
Protocol: (§1) CHO-K1 cells in which each of the 5 somatostatin receptors (sstr1-sstr5) were expressed independently were used. […] The radioactivity obtained in the absence of somatostatin-14 was considered as the total binding and that obtained in the presence of 1 μM of somatostatin-14 was considered as the non-specific bond. The specific binding was considered as the difference between the complete binding and the non-specific binding.

[4] = molecular target: T2, somatostatin receptor sstr2 (UniProt P30874 1-369, limits assumed); assay: radioligand competition vs 125I-Tyr11-somatostatin 14, CHO-K1 cells expressing sstr2, 0.1 nM to 10 uM
T2 construct: whole, on cells
T2 sequence (P30874 whole entry): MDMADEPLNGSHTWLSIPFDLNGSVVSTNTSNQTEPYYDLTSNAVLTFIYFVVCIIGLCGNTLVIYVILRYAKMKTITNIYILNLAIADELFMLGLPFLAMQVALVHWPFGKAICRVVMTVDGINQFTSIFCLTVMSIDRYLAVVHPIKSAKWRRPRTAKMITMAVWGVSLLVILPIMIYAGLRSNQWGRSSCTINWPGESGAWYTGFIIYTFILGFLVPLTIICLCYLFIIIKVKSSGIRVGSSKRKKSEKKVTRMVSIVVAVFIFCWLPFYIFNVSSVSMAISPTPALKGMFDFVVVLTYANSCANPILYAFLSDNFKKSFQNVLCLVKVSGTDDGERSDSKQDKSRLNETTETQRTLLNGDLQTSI
Protocol: as §1

[5] = molecular target: T3, somatostatin receptor sstr3 (UniProt P32745 1-418, limits assumed); assay: radioligand competition vs 125I-Tyr11-somatostatin 14, CHO-K1 cells expressing sstr3, 0.1 nM to 10 uM
T3 construct: whole, on cells
T3 sequence (P32745 whole entry): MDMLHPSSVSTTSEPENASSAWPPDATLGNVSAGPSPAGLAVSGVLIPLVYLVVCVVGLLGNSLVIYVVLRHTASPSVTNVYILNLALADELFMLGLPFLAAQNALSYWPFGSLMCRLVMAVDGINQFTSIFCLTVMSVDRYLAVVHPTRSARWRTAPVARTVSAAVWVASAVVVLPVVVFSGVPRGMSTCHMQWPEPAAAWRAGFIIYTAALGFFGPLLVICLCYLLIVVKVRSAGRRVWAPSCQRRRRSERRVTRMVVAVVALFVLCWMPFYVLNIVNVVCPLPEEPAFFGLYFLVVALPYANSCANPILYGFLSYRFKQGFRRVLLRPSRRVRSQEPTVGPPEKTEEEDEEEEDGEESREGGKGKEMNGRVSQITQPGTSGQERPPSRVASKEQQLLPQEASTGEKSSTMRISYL
Protocol: as §1

[6] = molecular target: T4, somatostatin receptor sstr5 (UniProt P35346 1-364, limits assumed); assay: radioligand competition vs 125I-Tyr11-somatostatin 14, CHO-K1 cells expressing sstr5, 0.1 nM to 10 uM
T4 construct: whole, on cells
T4 sequence (P35346 whole entry): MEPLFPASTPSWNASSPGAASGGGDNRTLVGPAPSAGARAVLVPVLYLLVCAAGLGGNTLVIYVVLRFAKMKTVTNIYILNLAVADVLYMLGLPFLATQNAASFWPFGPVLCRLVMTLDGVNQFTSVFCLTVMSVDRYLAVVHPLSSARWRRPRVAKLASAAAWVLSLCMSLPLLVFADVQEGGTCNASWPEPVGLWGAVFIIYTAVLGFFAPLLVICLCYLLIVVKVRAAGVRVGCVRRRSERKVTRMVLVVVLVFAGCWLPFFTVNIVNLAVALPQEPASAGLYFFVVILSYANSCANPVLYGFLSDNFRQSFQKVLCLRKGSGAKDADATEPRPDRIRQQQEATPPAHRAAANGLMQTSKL
Protocol: as §1

Molecule | half-life [1] [min] | percentage of inhibition of specific binding [3] [%] | percentage of inhibition of specific binding [4] [%] | percentage of inhibition of specific binding [5] [%] | percentage of inhibition of specific binding [6] [%] | clinical disease activity index (0-4) ([2]; 5% DSS, 0.4 mg/Kg s.c. days 1, 2 and 3, diseased group 3.7) | average weight of colon ([2]; necropsy day 8, sick mice 763 mg) [mg] | macroscopic grade of colitis (0-8) ([2]; necropsy day 8, sick mice 6.6)
Myristoyl-DRMPCRN[Phe(2,4,6-Me3)]FWKTFTSCK-OH (disulfide 5-16; SMILES CCCCCCCCCCCCCC(=O)N[C@@H](CC(=O)O)C(=O)N[C@@H](CCCNC(=N)N)C(=O)N[C@@H](CCSC)C(=O)N1CCC[C@H]1C(=O)N[C@H]1CSSC[C@@H](C(=O)N[C@@H](CCCCN)C(=O)O)NC(=O)[C@H](CO)NC(=O)[C@H]([C@@H](C)O)NC(=O)[C@H](Cc2ccccc2)NC(=O)[C@H]([C@@H](C)O)NC(=O)[C@H](CCCCN)NC(=O)[C@H](Cc2c[nH]c3ccccc23)NC(=O)[C@H](Cc2ccccc2)NC(=O)[C@H](Cc2c(C)cc(C)cc2C)NC(=O)[C@H](CC(N)=O)NC(=O)[C@H](CCCNC(=N)N)NC1=O) | – | > 50 | > 50 | > 50 | > 50 | – | – | –
H-DRMPCRN[Phe(2,4,6-Me3)]FWKTFTSCK-OH (disulfide 5-16; SMILES CSCC[C@H](NC(=O)[C@H](CCCNC(=N)N)NC(=O)[C@@H](N)CC(=O)O)C(=O)N1CCC[C@H]1C(=O)N[C@H]1CSSC[C@@H](C(=O)N[C@@H](CCCCN)C(=O)O)NC(=O)[C@H](CO)NC(=O)[C@H]([C@@H](C)O)NC(=O)[C@H](Cc2ccccc2)NC(=O)[C@H]([C@@H](C)O)NC(=O)[C@H](CCCCN)NC(=O)[C@H](Cc2c[nH]c3ccccc23)NC(=O)[C@H](Cc2ccccc2)NC(=O)[C@H](Cc2c(C)cc(C)cc2C)NC(=O)[C@H](CC(N)=O)NC(=O)[C@H](CCCNC(=N)N)NC1=O) | – | > 50 | > 50 | > 50 | > 50 | – | – | –

The next lines start with results.

half-life [1] [min] | percentage of inhibition of specific binding [3] [%] | percentage of inhibition of specific binding [4] [%] | percentage of inhibition of specific binding [5] [%] | percentage of inhibition of specific binding [6] [%] | Molecule | clinical disease activity index (0-4) ([2]; 5% DSS, 0.4 mg/Kg s.c. days 1, 2 and 3, diseased group 3.7) | average weight of colon ([2]; necropsy day 8, sick mice 763 mg) [mg] | macroscopic grade of colitis (0-8) ([2]; necropsy day 8, sick mice 6.6)
2 | – | – | – | – | C[C@@H](O)[C@@H]1NC(=O)[C@H](CCCCN)NC(=O)[C@H](Cc2c[nH]c3ccccc23)NC(=O)[C@H](Cc2ccccc2)NC(=O)[C@H](Cc2ccccc2)NC(=O)[C@H](CC(N)=O)NC(=O)[C@H](CCCCN)NC(=O)[C@@H](NC(=O)[C@@H]2CCCN2)CSSC[C@@H](C(=O)N[C@@H](CCCCN)C(=O)O)NC(=O)[C@H](CO)NC(=O)[C@H](CO)NC(=O)[C@H](Cc2ccccc2)NC1=O [cortistatin] (H-PCKNFFWKTFSSCK-OH; disulfide 2-13) | 1-1.5 | 621 | 0.87
– | > 50 | > 50 | > 50 | > 50 | H-PCKN[Phe(3,5-F2)]FWKT[Phe(2,4,6-Me3)]SSCK-NH2 (disulfide 2-13) | – | – | –
– | > 50 | > 50 | > 50 | > 50 | Octanoyl-PCKN[Phe(2,4,6-Me3)]F[dW]KTFTSC-OH (disulfide 2-13; SMILES CCCCCCCC(=O)N1CCC[C@H]1C(=O)N[C@H]1CSSC[C@@H](C(=O)O)NC(=O)[C@H](CO)NC(=O)[C@H]([C@@H](C)O)NC(=O)[C@H](Cc2ccccc2)NC(=O)[C@H]([C@@H](C)O)NC(=O)[C@H](CCCCN)NC(=O)[C@@H](Cc2c[nH]c3ccccc23)NC(=O)[C@H](Cc2ccccc2)NC(=O)[C@H](Cc2c(C)cc(C)cc2C)NC(=O)[C@H](CC(N)=O)NC(=O)[C@H](CCCCN)NC1=O) | – | – | –
